The target in one test is thrombin (Homo sapiens, UniProt P00734, heparin (1 and 50 μM)). Kind of test: inactivation kinetics with Hir-.
The target in test [1] is thrombin ([4′F]FPR-T) (Homo sapiens, UniProt P00734, active site labeled with 4′-fluorescein-FPR, heparin (T·Hep complex)). Kind of test: fluorescence equilibrium binding.
For test [2], the target named is thrombin ([6F]FFR-T) (Homo sapiens, UniProt P00734, active site labeled with 6-fluorescein-FFR, heparin (T·(Hep)2 complex)). The experiment in a line: fluorescence equilibrium binding.
Test [3] deals with thrombin ([6F]FFR-T) (Homo sapiens, UniProt P00734, active site labeled with 6-fluorescein-FFR, heparin (T·Hep complex)). The experiment in a line: fluorescence equilibrium binding.
The target of test [4] is thrombin ([4′F]FPR-T) (Homo sapiens, UniProt P00734, active site labeled with 4′-fluorescein-FPR, heparin (T·(Hep)2 complex)). Kind of test: fluorescence equilibrium binding.
Test [5] concerns the target thrombin ([4′F]FPR-T) (Homo sapiens, UniProt P00734, active site labeled with 4′-fluorescein-FPR). Kind of test: fluorescence equilibrium binding.

“And” between values parts separate entries of the source, which are not always exact repeats. Identical values can stand only once.

One may read the Kd as the constant that tells how readily two partners part at equilibrium. Read a low Kd as tighter binding.

B1: heparin cofactor II (protein)
chain: GSKGPLDQLEKGGETAQSADPQWEQLNNKNLSMPLLPADFHKENTVTNDWIPEGEEDDDYLDLEKIFSEDDDYIDIVDSLSVSPTDSDVSAGNILQLFHGKSRIQRLNILNAKFAFNLYRVLKDQVNTFDNIFIAPVGISTAMGMISLGLKGETHEQVHSILHFKDFVNASSKYEITTIHNLFRKLTHRLFRRNFGYTLRSVNDLYIQKQFPILLDFKTKVREYYFAEAQIADFSDPAFISKTNNHIMKLTKGLIKDALENIDPATQMMILNCIYFKGSWVNKFPVEMTHNHNFRLNEREVVKVSMMQTKGNFLAANDQELDCDILQLEYVGGISMLIVVPHKMSGMKTLEAQLTPRVVERWQKSMTNRTREVLLPKFKLEKNYNLVESLKLMGIRMLFDKNGNMAGISDQRIAIDLFKHQGTITVNEEGTQATTVTTVGFMPLSTQVRFTVDRPFLFLIYEHRTSCLLFMGRVANPSRS
On to B1, for which the Kd with thrombin was 0.04 µM; with thrombin ([4′F]FPR-T) [1] it was 0.2 µM and 0.23 µM; with thrombin ([6F]FFR-T) [2] it was 0.14 µM; with thrombin ([6F]FFR-T) [3], 0.3 µM and 0.15 µM; with thrombin ([4′F]FPR-T) [4], 0.6 µM.

B2: prothrombin fragment 2 fragment 2 (protein)
chain: SEGSSVNLSPPLEQCVPDRGQQYQGRLAVTTHGLPCLAWASAQAKALSKHQDFNSAVQLVENFCRNPDGDEEGVWCYVAGKPGDFGYCDLNYCEEAVEEETGDGLDEDSDRAIEGRTATSEYQTFFNPR
Consider B2, for which binding in the test with thrombin ([4′F]FPR-T) [5] was characterised by a dissociation constant (Kd) of 5 µM.

The values above are taken from PMC3461310 (2013).
